# Test results: PMC8751750, “Effect of using different co-ligands during ^99mTc-labeling of J18 peptide on SK-MES-1 cell binding and tumor targeting” (Iranian Journal of Basic Medical Sciences, 2021)
# Entries after “also recorded” stand apart in the source; their conditions may differ. Peptide text beside a SMILES is read from it.
# How the values were obtained:
# SK-MES-1 cells [1] = test: Saturation binding assay on SK-MES-1 cells; parameters: species or system human
# Description: The affinities of (^99mTc) Tc-HYNIC-peptides were determined utilizing a saturation binding experiment with cultivated cells in vitro for determination of the dissociation constant as KD and the number of binding sites per cell (Bmax). SK-MES-1 cells were incubated for 2 hr at 37 °C with increasing concentrations of (^99mTc) Tc- HYNIC- peptides (0.1, 0.5, 1, 2.5, 5, 25, and 50 nM). One dish served as a blocking sample, and it was immersed in a blocking solution containing a 500-fold excess of the non-labeled peptide. For each concentration, three dishes were utilized. Following incubation, the media was withdrawn, and the cells were trypsinized and collected for Gamma counter activity measurement. Prism 5 software (Ver. 5.0) was used to examine the particular binding data using nonlinear regression.
# [2] = Biodistribution in normal mice; type: in vivo; conditions: normal female NMRI mice, i.v. 1 μg in 100 μl (18.5 MBq), mean±SD, n=4
# Description: All animal investigations were approved by Mazandaran University of Medical Sciences Research and Ethical Committee in Sari, Iran. Twelve normal female NMRI mice (20–30 g) were randomly divided into three groups of four. 1 μg of (^99mTc) Tc –HYNIC–J18 peptide in 100 μl of buffer (18.5 MBq) was injected into the tail vein. All animals were sacrificed one, four, and twenty-four hours following radiolabeled peptide injection. Mice were euthanized with an appropriate dose of ketamine/xylazine (Sigma, USA) diluted with sterile water (1:3 v/v). Following deep anesthesia, blood was extracted by heart puncture with a 1-mL syringe washed with diluted heparin. Blood, liver, spleen, salivary gland, stomach, kidney, muscle, and bone samples were dissected and weighed, and radioactivity was measured. Except for the intestines, which were computed as a percentage of the injected dose per gram tissue (percent ID/g), the tissue uptake data was calculated as a percentage of the administered dose per total sample.
# [3] = tested on: SK-MES-1, A-549, SKOV-3 and MCF-7 cells; test: In vitro receptor binding of radiolabeled peptides on four cell lines; parameters: species or system human; conditions: 40 nM radiolabeled peptide, 2 hr at 37 °C
# Description: (§1) The in vitro receptor binding of the^ 99mTc-labeled peptide was evaluated using SK-MES-1 a human lung squamous cell carcinoma, SKOV-3 human ovarian carcinoma, and A-549 human lung adenocarcinoma epithelial and MCF-7 human breast cancer cell lines. All cell lines were kept at 37 °C in a 5% CO2 incubator and were maintained in Dulbecco’s DMEM-high glucose supplemented with 10% FBS. Cells were plated in 24-well plates at a density of 4×10^5 cells/well in 1 ml of complete medium and incubated for 24 hr to allow in cells to settle. Following a wash with cold serum-free media or PBS, 40 nM radiolabeled peptides in the full medium were given to the cells, which were then incubated at 37 °C for 2 hr. Finally, cells in culture plates were trypsinized and released, and radioactivity in the cells was measured. To determine specific versus nonspecific binding, SK-MES-1 cells were seeded into 12-well plates at a density of 5×10^5 cells/well and incubated with unlabeled peptides at a concentration 500-fold higher than the labeled peptide for 20 min at 37 °C, followed by the addition of the radiolabeled peptide to the wells. These cells were incubated for 2 hr at 37 °C in a humidified incubator.
# SK-MES-1 cells [4] = test: Specific binding (blocking with unlabeled peptide) on SK-MES-1 cells; parameters: species or system human; conditions: listed as 99mTc-peptide 2
# Description: as §1
# A-549 cells = conditions: previously reported, listed as 99mTc-HYNIC-(Ser)3-J18 (tricine/EDDA); cited from earlier work
# Source text: Table 1 Overview of affinity binding ^99mTc-HYNIC-(Ser)3-J18 on SK-MES-1 vs A-549 cell line | column: A-549 / Tricine; A-549 / tricine/EDDA
# [5] = Biodistribution in SK-MES-1 xenografted nude mice; type: in vivo, female C57 nu/nu mice; conditions: female, C57 nu/nu, mouse, in vivo, iv, total radioactivity, SK-MES-1 xenograft nude mice, n=4
# Description: (§2) The tumor biodistribution and targeting properties of the radiolabeled peptides were carried out in female C57 nu/nu mice bearing SK-MES-1 (Pasture Institute, North Branch and Amol, Iran). The tumor was grafted by subcutaneous injection of SK-MES-1 cells at a concentration of 4×10^6 cells/mouse into the right front flank of the mice and left to grow over a period of 20 days. The mice were ready for biodistribution when tumor size reached 0.7–1 cm^3 in mean diameter, all mice received intravenous co-injections of (^99mTc) Tc-HYNIC-(Ser)3-J18 peptide 1 or (^99mTc )Tc-HYNIC-(Ser)3-J18 peptide 2 (1 μg in 100 μl buffer) after 1, 2, and 4 hr post-injection, respectively (n=4 mice per group). In order to measure the radiopeptides’ nonspecific uptake of the radiopeptides, one group of four animals was injected with 300 μg of non-labeled peptide in a 50 μl buffer. The mice in the blocking group were euthanized 2 hr after the injection. Mice organ and tissue samples were collected, and radioactivity uptake was calculated as a percentage of the administered dose per gram tissue (%ID/g).
# SK-MES-1 tumors = test: Biodistribution in SK-MES-1 xenografted nude mice; type: in vivo, female C57 nu/nu mice; conditions: SK-MES-1 xenograft nude mice, mean ± SD, n=4
# Description: as §2
smiles,measurement,setting,value
"CC(C)C[C@H](NC(=O)[C@H](CO)NC(=O)[C@H](CCCNC(=N)N)NC(=O)[C@H](CO)NC(=O)[C@H](CO)NC(=O)[C@H](CO)NC(=O)c1ccc(NN)nc1)C(=O)N[C@@H](Cc1c[nH]c2ccccc12)C(=O)N[C@@H](CO)C(=O)N[C@@H](CC(=O)O)C(=O)N[C@@H](Cc1ccccc1)C(=O)N[C@@H](Cc1ccc(O)cc1)C(=O)N[C@@H](C)C(=O)N[C@@H](CO)C(=O)N[C@@H](C)C(=O)N[C@@H](CO)C(=O)N[C@@H](CCCNC(=N)N)C(=O)NCC(=O)N1CCC[C@H]1C(=O)O [Peptide 2, (^99mTc) Tc-HYNIC-(Ser)3-J18 with tricine/EDDA, metal not drawn] (HELM PEPTIDE1{[NNc1ccc(C(=O)[*:2])cn1].S.S.S.R.S.L.W.S.D.F.Y.A.S.A.S.R.G.P}$$$$V2.0; C-terminus assumed)",Bmax,"SK-MES-1 cells [1]; Figure 4, saturation binding, 2 hr at 37 °C, listed as 99mTc-(EDDA/tricine)-(Ser)3-HYNIC-J18",(1.9±0.3)·10^4 binding sites/cell
same,"binding affinity for SK-MES-1, in words",SK-MES-1 cells [1]; listed as 99mTc-peptide 2,high binding affinity; also recorded: good receptor-binding affinity
same,Kd,"SK-MES-1 cells [1]; saturation binding, 0.1-50 nM, 2 hr at 37 °C, blocking with 500-fold excess non-labeled peptide, three dishes per concentration, Prism 5 nonlinear regression, listed as 99mTc-HYNIC-(Ser)3-J18 (tricine/EDDA)",3.64 ± 0.8 nM
same,Intestine uptake (with contents),[2]; 4 hr,3.63±1.80 percentage of injected dose per whole sample
same,Intestine uptake (with contents),[2]; 24 hr,0.59±0.29 percentage of injected dose per whole sample
same,"cellular affinity, in words",[3],strongest cellular affinity for the SK-MES-1 cell line
same,reduction of binding by pre-saturation with unlabeled J18 peptide,"SK-MES-1 cells [4]; 500-fold unlabeled peptide 20 min at 37 °C, then radiolabeled peptide 2 hr at 37 °C",7.5 fold
same,"specific binding to SK-MES-1, in words",SK-MES-1 cells [4],high specificity
same,Kd,A-549 cells,4.4 ± 0.8 nM
same,tissue to tissue ratio at 2 h,"[5]; 1 ug, 2 hr, read-out: Tumor/blood ratio",2.96
same,tissue uptake at 2 h,"[5]; 2h-blocked (300 μg non-labeled peptide 0.5 hr before), i.v. 1 μg, mean ± SD, read-out: Tumor uptake",0.43 ± 0.05 %ID/g
same,Intestine uptake (with contents),"SK-MES-1 tumors; 1 hr, i.v. 1 μg in 100 μl",0.78±0.01 percentage of injected dose per whole sample
same,Intestine uptake (with contents),"SK-MES-1 tumors; 2h-blocked (300 μg non-labeled peptide 0.5 hr before), i.v. 1 μg",0.23±0.09 percentage of injected dose per whole sample
same,Intestine uptake (with contents),"SK-MES-1 tumors; 2 hr, i.v. 1 μg in 100 μl",0.53±0.11 percentage of injected dose per whole sample
same,Intestine uptake (with contents),"SK-MES-1 tumors; 4 hr, i.v. 1 μg in 100 μl",0.03±0.01 percentage of injected dose per whole sample
